Data on 167 variants can be found in the RNAGym collection of RNA variant scans (doi:10.7554/elife.80360).

First the molecules themselves.
B1: Twister Ribozyme (parent)
chain: AACACUGCCAAUGCCGGUCCCAAGCCCGGAUAAAAGUGGAGGGGGCGG

In the series the parent is B1. Kind of series: self-cleavage, relative activity (ratio to wild type); higher = more cleavage; co-transcriptional.
Consider A10U U18C, for which the self-cleavage came to 0.506.
Consider A10U U18G, for which the self-cleavage was 0.115.
The same measure for A10U U18A: 0.546; for C9U G36A: 0.281; for C9U G36U: 0.164.
The result for C9G U12C reads 0.812.
C9G U12G: the self-cleavage came to 0.492.
The same measure for A10C G47C: 0.538.
The same measure for A10C G47U: 0.741.
As for C9G G48C, the self-cleavage is 0.511.
The result for C9G G48A reads 0.443; that for C9U A11C, 0.736; that for C9U A32G, 0.729.
Turning to C9U A33G, the self-cleavage was 0.548.
For C9U A33U, the self-cleavage is 0.751.
The result for C9U A33C reads 0.601; that for A10C C46G, 0.714.
The same measure for A10G C15A: 0.707; for A10G C15G: 0.136; for A11C G29U: 0.681.
The result for A11C G29A reads 0.531.
A10G G39A: the self-cleavage stood at 0.564.
For A10U U31G, the self-cleavage came to 0.948.
As for A10G G29U, the self-cleavage turned out to be 1.12.
The same measure for A10G G29C: 1.01.
As to A11C G13U, the self-cleavage worked out at 0.0589.
The result for A11C G13A reads 0.188.
With A11C G13C, the self-cleavage stood at 0.164.
On to C9G G16C, for which the self-cleavage worked out at 0.0741.
Take C9G G16A: the self-cleavage was found to be 0.329.
The same measure for C9U U31G: 0.69.
The same measure for A10G A35U: 0.943; for A10G A35C: 1.17.
The result for A10G G24C reads 0.131; that for A10G G24U, 0.18; that for A10U G28U, 0.929.
Turning to A11C A30C, the self-cleavage turned out to be 0.719.
The result for A11C A30G reads 0.739; that for A11G, 0.932.
The same measure for A11C: 0.906; for C9G G47C: 0.186.
In the case of C9G G47A, the self-cleavage was 0.38.
As to C9G G47U, the self-cleavage is 0.278.
The same measure for A10C G43U: 0.482; for A10C G43A: 0.337.
As to A10C G43C, the self-cleavage was found to be 0.201.
With A11G C15A, the self-cleavage was determined as 0.567.
For the variant C9G C27U, the self-cleavage came out at 0.326.
In the case of C9G C27G, the self-cleavage turned out to be 0.0899.
Turning to C9G C27A, the self-cleavage was determined as 0.098.
As to A11C C25A, the self-cleavage was found to be 0.0918.
On to A11C C25U, for which the self-cleavage worked out at 0.733.
The same measure for A11C C25G: 0.115; for A10G G17A: 1.02; for A10G G17C: 0.217.
The result for A10C C19G reads 0.309; that for C9U G16C, 0.13.
Regarding A11C G43A, the self-cleavage stood at 0.167.
A10G C20G: the self-cleavage worked out at 0.183.
Take A10G C20U: the self-cleavage came to 0.878.
Regarding A10G C20A, the self-cleavage was found to be 0.136.
The same measure for A10C G45U: 0.842.
The result for A11G C27U reads 0.405.
The same measure for A11G C27A: 0.449; for C9U G29C: 0.242; for C9U G29U: 0.606.
For A10C A23C, the self-cleavage was determined as 0.242.
The same measure for A10C A23U: 0.664.
The result for A10U A23G reads 0.461.
The same measure for A10U A23C: 0.182; for A11G A33U: 0.955.
On to A10U G17A, for which the self-cleavage stood at 0.532.
As for A10U G17C, the self-cleavage came out at 0.11.
For the variant C9U C25A, the self-cleavage came out at 0.1.
The result for C9U C25U reads 0.404; that for A11C U37A, 0.886; that for A11C U37C, 0.808.
The result for A11C U37G reads 0.742; that for C9U A10G, 0.872; that for A10C C25A, 0.0743.
Regarding A10C C25U, the self-cleavage was determined as 0.782.
The result for A10C C25G reads 0.31; that for A11C G48U, 1.06.
For the variant A11C G48A, the self-cleavage worked out at 0.998.
The result for A11C G48C reads 1.05.
For the variant A10C C14U, the self-cleavage is 1.01.
Take A10C C14G: the self-cleavage was determined as 0.289.
The result for C9U G47C reads 0.235; that for A10U C25G, 0.194; that for A11C A40G, 0.12.
For the variant A11C A40C, the self-cleavage was 0.14.
As for A11C A40U, the self-cleavage came out at 0.153.
The result for C9G G36C reads 0.148; that for C9G G36U, 0.137; that for C9G G17U, 0.0981.
With C9G G17C, the self-cleavage was determined as 0.0619.
The same measure for C9U C15A: 0.22.
The result for C9U C15U reads 0.594; that for A10U A32G, 0.896.
The result for A10U A32U reads 0.842; that for A10U A32C, 0.983; that for A10C C20G, 0.0778.
Regarding A10C C20U, the self-cleavage came out at 0.941.
As to A10C A40G, the self-cleavage worked out at 0.181.
The same measure for A10C A40U: 0.155; for C9U G24A: 0.0648.
The same measure for C9U G24C: 0.0718; for C9U G28C: 0.549; for C9U G13U: 0.826.
Take C9U: the self-cleavage was found to be 0.754.
The result for A10G G16C reads 0.567; that for A10G G16U, 1.14.
Regarding A10G G42U, the self-cleavage is 0.493.
In the case of A10G G42C, the self-cleavage was 0.618.
Take C9U U12G: the self-cleavage worked out at 0.501.
The result for C9U U12A reads 0.794.
The result for A10G G44U reads 1.04; that for A10G G44A, 0.881.
Take A10G G44C: the self-cleavage is 0.965.
On to C9G G44C, for which the self-cleavage came to 0.395.
The result for A10G C25G reads 0.409; that for C9U C19G, 0.101.
The result for A10G A11G reads 0.886; that for A10C G39U, 0.148.
With A11C A22C, the self-cleavage was 0.929.
For A11C A22G, the self-cleavage was 0.168.
The result for A11C G44U reads 0.791; that for A10G G28C, 1.05.
As for C9G C26U, the self-cleavage was found to be 0.0719.
The result for C9U C46G reads 0.651; that for C9U C46A, 0.549.
The result for C9U G43C reads 0.151.
In the case of A10U G44U, the self-cleavage was 0.971.
The result for A10U G44C reads 0.937.
Regarding A10G G48U, the self-cleavage is 1.15.
In the case of A10G G48A, the self-cleavage is 0.902.
For the variant A10U U12A, the self-cleavage worked out at 0.986.
For the variant C9U G38A, the self-cleavage is 0.177.
For the variant C9U G38C, the self-cleavage was found to be 0.509.
On to A10G C14G, for which the self-cleavage worked out at 0.0768.
For A10G C14U, the self-cleavage turned out to be 1.02.
For the variant A11G C46A, the self-cleavage is 0.808.
Regarding C9G G24C, the self-cleavage amounted to 0.0967.
Take C9G G24U: the self-cleavage came out at 0.0888.
The same measure for A10U A34U: 0.818; for A10U A22C: 0.93; for A11G A40U: 0.126.
Turning to A11G A40C, the self-cleavage came to 0.214.
The same measure for C9G U31A: 0.648; for A11C C26U: 0.137.
Regarding A11C G41C, the self-cleavage is 0.255.
For the variant A11C G41U, the self-cleavage was found to be 0.42.
The result for A10C A30G reads 0.969; that for A10C A30C, 0.884.
The same measure for A11C A32G: 0.788; for A11C G45U: 0.748.
The same measure for A11C G42U: 0.136; for A11C G42A: 0.248; for A11C C46A: 0.908.
On to A11C C46U, for which the self-cleavage is 0.736.
A11C C46G: the self-cleavage was found to be 0.917.
The same measure for C9U G41U: 0.187.
For C9U G41A, the self-cleavage turned out to be 0.121.
Regarding A10U G36A, the self-cleavage came to 0.804.
The result for A10U G36U reads 0.716; that for C9G G43C, 0.132; that for C9G G43A, 0.123.
